“Also recorded” adds a separate entry of the source.
B1: PhoDer: optogenetically activatable human GSDMD with photocleavable linker between N- and C-terminal domains, SEQ ID NO: 33 (protein)
chain: MGSAFERVVRRVVQELDHGGEFIPVTSLQSSTGFQPYCLVVRKPSSSWFWKPRYKCVNLSIKDILEPDAAEPDVQRGRSFHFYDAMDGQIQGSVELAAPGQAKIAGGAAVSDSSSTSMNVYSLSVDPNTWQTLLHERHLRQPEHKVLQQLRSRGDNVYVVTEVLQTQKEVEVTRTHKREGSGRFSLPGATCLQGEGQGHLSQKKTVTIPSGSTLAFRVAQLVIDSDLDVLLFPDKKQRTFQPPATGHKRSTSEGAWPQLPSGLSMMRCLHNGGGSVIPDYFKQSFPEGYSWERSMTYEDGGICIATNDITMEGDSFINKIHFKGTNFPPNGPVMQKRTVGWEASTEKMYERDGVLKGDVKMKLLLKGGGHYRCDYRTTYKVKQKPVKLPDYHFVDHRIEILSHDKDYNKVKLYEHAVARNSTDSMDELYKGGSGGMVSKGEETITSVIKPDMKNKLRMEGNVNGHAFVIEGEGSGKPFEGIQTIDLEVKEGAPLPFAYDILTTAFHYGNRVFTKYPRGGGVPAEGAFTEDFQGLRAEVETISKELELLDRELCQLLLEGLEGVLRDQLALRALEEALEQGQSLGPVEPLDGPAGAVLECLVLSSGMLVPELAIPVVYLLGALTMLSETQHKLLAEALESQTLLGPLELVGSLLEQSAPWQERSTMSLPPGLLGNSWGEGAPAWVLLDECGLELGEDTPHVCWEPQAQGRMCALYASLALLSGLSQEPH
modifications: photocleavable linker
B2: GSDMD: purified recombinant full length human GSDMD, activated by caspase-1 (protein, UniProt P57764 1-484, looked up)
chain: MGSAFERVVRRVVQELDHGGEFIPVTSLQSSTGFQPYCLVVRKPSSSWFWKPRYKCVNLSIKDILEPDAAEPDVQRGRSFHFYDAMDGQIQGSVELAAPGQAKIAGGAAVSDSSSTSMNVYSLSVDPNTWQTLLHERHLRQPEHKVLQQLRSRGDNVYVVTEVLQTQKEVEVTRTHKREGSGRFSLPGATCLQGEGQGHLSQKKTVTIPSGSTLAFRVAQLVIDSDLDVLLFPDKKQRTFQPPATGHKRSTSEGAWPQLPSGLSMMRCLHNFLTDGVPAEGAFTEDFQGLRAEVETISKELELLDRELCQLLLEGLEGVLRDQLALRALEEALEQGQSLGPVEPLDGPAGAVLECLVLSSGMLVPELAIPVVYLLGALTMLSETQHKLLAEALESQTLLGPLELVGSLLEQSAPWQERSTMSLPPGLLGNSWGEGAPAWVLLDECGLELGEDTPHVCWEPQAQGRMCALYASLALLSGLSQEPH
modifications: full-length activated by caspase-1

Columns and labels:
Hela cells [1] = assay: Optogenetic activation of PhoDer, membrane-targeted jRCaMP1b calcium flare imaging and fluctuation analysis; assay type: cell-based
[2] = tested on: RAW264.7 and mouse bone marrow-derived macrophages (BMDM); assay: Optogenetic activation of PhoDer in transiently transfected macrophages, calcium response; assay type: cell-based; settings: transiently transfected RAW264.7 and mouse BMDM
Description: Cell Culture. HeLa and RAW264.7 cells were maintained in Dulbecco's Modified Eagle Medium (DMEM) medium supplemented with 10% fetal bovine serum (FBS) and 1% penicillin and streptomycin. Cells were transfected at 50%-70% confluency using LIPOFECTAMINE® 2000 transfection reagent and incubated for 24 hours before imaging. Cells were never serum-starved. To examine endogenous inflammatory activation, RAW264.7 cells were treated with 100 ng/μL lipopolysaccharide (LPS, Invivogen) at the beginning of each experiment. Pretreatment to bias membrane composition by phosphatidylinositol 4,5-bisphosphate (PIP2) modifying enzymes was performed by incubating Hela cells in Hanks' Balanced Salt Solution (HBSS) buffer with inhibitors at 37° C. for 10 minutes to prior imaging at the following concentrations: for phosphoinositide 3-kinase (PI3K), cells were treated 10 μM wortmannin (Tocris); and for phospholipase C (PLC), cells were treated with 10 μM U73122 (Tocris). Cells were removed from the incubator and allowed to come to thermal equilibrium before being imaged in HBSS buffer at room temperature.
Fluorescence Imaging, Optogenetic Activation, and Post-Processing. […]

Hela cells [3] = assay: Modulating molecular transport of a cell by light activation of PhoDer (GFP efflux, phalloidin influx, antibody delivery); assay type: cell-based
Description: Using the PhoDer protein, it was determined whether a large molecule, i.e., an impermeable dye, fluorescent protein or an IgG antibody, could be transported into or out of a living cell via light-inducible activation of the PhoDer construct.
GFP Efflux. Cells expressing GFP were transfected with the PhoDer protein and illuminated intermittently for 1 hour. Over time the gasdermin pore grew larger and GFP fluorescence was captured on a fluorescence microscope using a 40× objective.
Phalloidin Influx. Phalloidin is a cell impermeable dye used in the labeling of F-actin. Cells were transfected with the PhoDer protein and contacted with phalloidin in the cell medium. The cells were subsequently illuminated and permeation of the phalloidin was monitored. […] As such, control gasdermin pore formation was capable of mediating cargo delivery in the absence of cell death.
Antibody Delivery. Hela cells expressing PhoDer were placed in medium containing a fluorescently tagged anti-tubulin monoclonal IgG antibody (˜150 kDa, ˜14 nm in size). Before exposure to light, antibody fluorescence was evident in the medium. […] Super-resolution imaging of the cells was carried out using STORM (Stochastic Optical Reconstruction Microscopy). […] Advantageously, the cells remained intact and alive thereby allowing for analysis of cytoskeletal tubulin and nuclear tubulin. […] Given that cytoskeletal and nuclear tubulin have distinct functions apart from their structural roles in forming microtubules, delivery of the anti-tubulin antibody via the present invention allows for further subcellular analysis of tubulin in living cells.

living endothelial cells = assay: Whole-cell patching after injection of activated recombinant GSDMD; assay type: cell-based; settings: injection of activated protein, n=15
Source text: To further address whether the calcium dynamics primarily reflected that of GSDMD pores, whole-cell patching was directly recorded in living endothelial cells, which also undergo pyroptosis. […] Additionally, as befitting a large pore, the GSDMD pore opening/closing dynamics were not restricted to calcium observations. Calcium flares were visualized, which occurred in coincidence with the transient flux of a large fluorogenic molecule, within the same spatiotemporal context in living cells.

GSDMD pores = molecular target: T1, GSDMD pores (Homo sapiens, UniProt P57764); assay: Free-standing planar lipid bilayer electrophysiology of reconstituted GSDMD pores; assay type: biochemical
T1 construct: His-SUMO (N, cleaved yes); made in house; host or cells: E. coli BL21
T1 sequence (P57764 1-275 limits assumed): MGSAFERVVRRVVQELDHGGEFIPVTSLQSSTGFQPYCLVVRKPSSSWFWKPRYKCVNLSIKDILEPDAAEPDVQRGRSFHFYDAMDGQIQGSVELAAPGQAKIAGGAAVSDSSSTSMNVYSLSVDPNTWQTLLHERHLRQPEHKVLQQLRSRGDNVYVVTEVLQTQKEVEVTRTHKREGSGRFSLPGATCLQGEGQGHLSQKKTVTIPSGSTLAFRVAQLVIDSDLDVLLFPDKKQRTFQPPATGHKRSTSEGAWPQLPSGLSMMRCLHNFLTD
Description: Protein Purification. Plasmid encoding the full length human GSDMD with a N-terminal His-SUMO tag was transformed into E. coli BL21 strain. The cultures were grown at 37° C. until OD600 0.8, and protein expression was induced with 0.2 mM isopropyl β-D-1-thiogalactopyranoside (IPTG) overnight at 20° C. The cells were harvested by centrifugation and the pellet was resuspended in 20 mM Tris buffer, pH 7.5, 50 mM NaCl, 5 mM imidazole, 20 mM MgCl2, 10 mM KCl, 0.5 mM TCEP, 0.1 mM protease inhibitor, and DNase I. After resuspension, cells were disrupted by high-pressure and centrifuged at 30,000 g at 4° C. for 1 hour. The supernatant was incubated for 2 hours at room temperature with pre-equilibrated Ni-NTA affinity resin (Thermo Scientific) and then passed through a column for gravity flow purification. The column was washed with 20 column volumes of resuspension buffer, and the fusion protein was eluted with three column volumes of the same buffer with 250 mM imidazole. SUMO-tag cleavage was achieved by addition of ULP1 protease to the solution and subsequent dialysis overnight at 4° C. against 20 mM Tris buffer, pH 7.5, 50 mM NaCl, 0.5 mM TCEP. GSDMD was eluted from a second round of purification through pre-equilibrated Ni-NTA affinity resin. The protein was further purified by HI-TRAP® Q ion-exchange resin and a SUPERDEX® 75 gel filtration column (GE Healthcare) pre-equilibrated with 20 mM Tris buffer, pH 7.5, 50 mM NaCl, 0.5 mM TCEP. The purified protein was concentrated to 20 mg/ml and frozen at −80° C.
Free-Standing Lipid Bilayer Formation and Electrophysiology. For the lipid bilayer, a bilayer chamber with a polystyrene cuvette was used. In addition, the folding method, which is based on Langmuir-Blodgett film formation (Kroemer et al. (2009) Cell Death Differ. 16:3-11; Weavers et al. (2016) Cell 165:1658-1671) was employed. Monolayers that were spread in the air-water interface were faced at the chamber hole (Bergsbaken & Fink (2009) Nat. Rev. Microbiol. 7:99-109; Mulvihill et al. (2018) EMBO J. 37 (14): e98321). In brief, a shallow trough made of polystyrene was filled with recording solution, and the surface was separated into two parts by one of the cuvette walls. Bilayers were formed by monolayers of 1:3 1-palmitoyl-2-oleoylphosphatidylethanolamine (POPE)/1-palmitoyl-2-oleoylphosphatidylcholine (POPC) (Avanti-lipids) in pentane; where appropriate, phosphoinositides of the indicated headgroup were introduced with di-oleoyl (18:1) fatty acid chains at 10% relative concentration. A small amount of phospholipid, dispersed in pentane solution, was dropped on one of the water surfaces and as pentane evaporated, the lipid molecules remained at the air-water interface. The movements of the lipid molecules became less vigorous, and eventually the lipid molecules packed together to form a monolayer. For the formation of the planar lipid bilayer by the folding method, a monolayer was formed at the air-water interface in each compartment. Upon raising the recording solution level by adding more solution, the monolayer ran up on the cuvette surface and passed through the hole, where the two monolayers from both sides encountered each other and formed a bilayer. The membrane formed by this method has been referred to as a “solvent-free” membrane. The advantage of this method over other methods, like the painting method, is the capacity to form an asymmetrical membrane in which the lipid composition of either leaflet is arbitrarily defined (Kayagaki et al. (2015) Nature 526: 666-671). Once formed, the membrane retains this asymmetry for a long time because the flip-flop or exchange of the lipid molecules between both leaflets of the membrane is very slow.
For incorporation of the GSDMD into the lipid bilayer, 2 μM of the purified GSDMD protein was added to the cis side chamber along with 2 μM of caspase 1. The specific membrane capacitance of the membrane formed by the folding method was 0.6-0.8 μF/cm^2. […]

| Molecule | average circularity (minor/major radii ratio) of the flares (Hela cells [1]) | pores that persisted after the mean open time and reopened (Hela cells [1]) [%] | calcium response upon optogenetic activation (Hela cells [1]; Hela cells expressing PhoDer, membrane-targeted jRCaMP1b) | time in which calcium flares maximized (Hela cells [1]; average, n=21 pores) [min] | cooperative coefficient of pore closing (Hela cells [1]; mean of n=21, R^2=0.996) | average time pores were open (Hela cells [1]; n=21 pores) [min] | mean diameter reached by calcium flares (Hela cells [1]; n=21 pores) [μm] | calcium response upon optogenetic activation [2] | time cells observed intact and adherent after antibody delivery (Hela cells [3]) | delivery of fluorescently tagged anti-tubulin monoclonal IgG antibody (Hela cells [3]; Hela cells, about 5 minute blue-light activation) | cell lysis after phalloidin delivery (calcium imaging) (Hela cells [3]; blue-light activation) | phalloidin influx, F-actin labeling (Hela cells [3]; blue-light activation, phalloidin in cell medium) | GFP efflux (Hela cells [3]; cells expressing GFP, illuminated intermittently for 1 hour) | single pore currents, whole-cell patching (living endothelial cells) | mean current of single pores (GSDMD pores; POPE/POPC baseline bilayer) [pA] | open probability (GSDMD pores; POPE/POPC baseline bilayer) | time to micro-currents (protein-membrane interaction) after protein introduction (GSDMD pores; POPE/POPC baseline bilayer, GSDMD + caspase-1, n=20 bilayers) [min] | ion selectivity of pores (GSDMD pores; ramp protocol, dual rectification) |
| --- | --- | --- | --- | --- | --- | --- | --- | --- | --- | --- | --- | --- | --- | --- | --- | --- | --- | --- |
| B1 | 0.75 | ~57 | caused spontaneous calcium flares at sporadic locations on the plasma membrane | 0.35 | 0.73 | 1.55 | ~10 | initiated clearly localized transient calcium flares | at least 24 hours | the fluorescent antibody was delivered into the interior of the cell | did not lyse | allowed phalloidin to permeate and bind F-actin; also recorded: delivers actin labels into living cells | GFP left the cell | – | – | – | – | – |
| B2 | – | – | – | – | – | – | – | – | – | – | – | – | – | showed single pore currents | 32 | ~0.2 | 27.2 ± 2.7 | not inherently ion-selective |

— patent publication US20240262878A1, “PHOTOACTIVATABLE GASDERMIN PROTEINS” (THE BOARD OF TRUSTEES OF THE UNIVERSITY OF ILLINOIS, priority 2021, published 2024)
